From publication PMC6165545

Target: growth hormone secretagogue receptor-type 1a tagged with enhanced green fluorescent protein (GHSR-1a-EGFP), stably expressed in HEK293A cells (UniProt Q92847)
UniProt Q92847, sequence (Q92847 whole entry): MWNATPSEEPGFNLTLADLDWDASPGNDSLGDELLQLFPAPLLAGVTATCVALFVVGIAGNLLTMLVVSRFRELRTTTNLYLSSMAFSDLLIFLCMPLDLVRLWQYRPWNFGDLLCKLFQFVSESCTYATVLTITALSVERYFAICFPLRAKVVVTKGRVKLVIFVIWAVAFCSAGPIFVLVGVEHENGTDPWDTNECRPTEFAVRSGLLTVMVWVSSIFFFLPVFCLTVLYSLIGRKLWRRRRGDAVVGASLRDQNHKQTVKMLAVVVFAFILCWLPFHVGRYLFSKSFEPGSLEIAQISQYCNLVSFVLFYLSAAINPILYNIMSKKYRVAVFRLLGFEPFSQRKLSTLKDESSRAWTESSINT

intracellular Ca2+ mobilisation in HEK293A cells stably expressing GHSR-1a-EGFP, EC50 [mg/L]	intracellular Ca2+ mobilisation in HEK293A cells stably expressing GHSR-1a-EGFP, Emax as percentage of the control (3.3% FBS) [%]	Substance
270	149	casein-derived hydrolysate (CasHyd)
	132	ghrelin (rat) (peptide)
